Several values for one entry are separate records, joined by “and”; a condition that tells them apart may be missing. Identical values can stand only once.
How the values were obtained:
potato phosphatase [1] = biological target: T1, potato phosphatase (Solanum tuberosum, UniProt Q6J5M8); experiment: Phosphatase assay B, substrate specificity; details: purified potato phosphatase, assay B, pH 5.8, 25° C
T1 sequence (Q6J5M8 with tags, fused parts or gaps V118I/E238V/S277N/V282G/E319A/A394T/S415A/T416I/D418E/I426Y/H428S/N437A): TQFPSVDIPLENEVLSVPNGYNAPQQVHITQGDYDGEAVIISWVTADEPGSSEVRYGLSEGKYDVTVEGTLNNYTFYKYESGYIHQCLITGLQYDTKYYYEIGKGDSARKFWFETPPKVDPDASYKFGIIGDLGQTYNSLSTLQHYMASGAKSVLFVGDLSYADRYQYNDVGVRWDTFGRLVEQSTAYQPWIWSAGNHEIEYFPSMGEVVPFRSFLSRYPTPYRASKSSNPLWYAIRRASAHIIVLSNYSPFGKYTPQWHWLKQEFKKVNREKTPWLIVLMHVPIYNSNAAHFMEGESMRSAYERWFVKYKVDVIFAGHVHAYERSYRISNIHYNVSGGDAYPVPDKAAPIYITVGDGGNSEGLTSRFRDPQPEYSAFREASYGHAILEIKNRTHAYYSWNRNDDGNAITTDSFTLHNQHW
Protocol: Phosphatase activity was determined using assay B and a wide range of compounds, tested at a total concentration of 5 mM unless otherwise specified.
(§1) Phosphatase (0.05 units) was incubated in 1.5 mL cuvettes with 0.9 mL of 50 mM MES-NaOH (pH 5.8) containing 4 mM MgCl2 and an alternative substrate (5 mM unless otherwise indicated) for 6 min at 25° C. Reactions were terminated by the sequential addition of 0.1 mL reagent A (3 M H2 SO4 containing 20 mM ammonium molybdate) and […] of 1% (v/v) Triton X-100. Samples were incubated at 25° C. for 20 min and the A660 was determined. To calculate activities, a standard curve over the range of […] Pi was constructed for each set of assays. Assays were performed in triplicate and controls were run for background amounts of Pi present at each substrate concentration by adding reagent A before the enzyme.

[2] = biological target: minor 28-kD potato tuber phosphatase isoform; details: cited from earlier work
[3] = biological target: egg yolk storage phosphoprotein, phosvitin (Gallus gallus (Chicken)) (UniProt P02845)
[4] = biological target: potato tuber phosphatase (PTAP) (potato (Solanum tuberosum L. cv. Chiefton))
[5] = test system: P-Tyr phosphatase from Escherichia coli; details: E. coli P-Tyr phosphatase; cited from earlier work
[6] = substrate: N[C@@H](Cc1ccc(OP(=O)(O)O)cc1)C(=O)O; experiment: purified protein, by the assay type; details: other: apparent Km, purified potato phosphatase, assay B; pH 5.8; 25.0 °C
Protocol: (§3) Phosphatase (0.05 units) was incubated in 1.5 mL cuvettes with 0.9 mL of 50 mM MES-NaOH (pH 5.8) containing 4 mM MgCl2 and an alternative substrate (5 mM unless otherwise indicated) for 6 min at 25° C. Reactions were terminated by the sequential addition of 0.1 mL reagent A (3 M H2 SO4 containing 20 mM ammonium molybdate) and 10 ml of 1% (v/v) Triton X-100. Samples were incubated at 25° C. for 20 min and the A660 was determined. To calculate activities, a standard curve over the range of 0.01 to 1.0 mmol Pi was constructed for each set of assays. Assays were performed in triplicate and controls were run for background amounts of Pi present at each substrate concentration by adding reagent A before the enzyme. Hydrolysis was proportional to enzyme concentrations between 0.005 to 0.1 units/mL and remained linear with time for at least 15 min.
(§4) All kinetic parameters are the means of duplicate determinations performed on two separate preparations of the purified enzyme, and are reproducible to within ±10% SE.

[7] = substrate: Nc1ncnc2c1ncn2[C@@H]1O[C@H](COP(=O)(O)OP(=O)(O)OP(=O)(O)O)[C@@H](O)[C@H]1O; experiment: purified protein, by the assay type; details: other: apparent Km, purified potato phosphatase, assay B; pH 5.8; 25.0 °C
Protocol: as §3, §4

[8] = substrate: O=[N+]([O-])c1ccc(OP(=O)(O)O)cc1; experiment: purified protein, by the assay type; details: other: apparent Km, purified potato phosphatase, assay B; pH 5.8; 25.0 °C
[9] = substrate: C=C(OP(=O)(O)O)C(=O)O; experiment: purified protein, by the assay type; details: other: apparent Km, purified potato phosphatase, assay B; pH 5.8; 25.0 °C
[10] = substrate: NC(COP(=O)(O)O)C(=O)O; experiment: purified protein, by the assay type; details: other: apparent Km, purified potato phosphatase, assay B; pH 5.8; 25.0 °C
potato phosphatase [11] = biological target: T1, potato phosphatase; experiment: Specific activity of purified potato tuber phosphatase; type: biochemical; set-up: mature chain from Thr30, C-terminus not determined
Protocol: As an initial step towards the isolation of plant phosphatase genes, the predominant phosphatase from potato tuber was purified to a final P-Tyr-hydrolyzing specific activity of 1917 units/mg (Gellatly et al, 1994). Only a single peak of activity was recovered following chromatography on columns of S-Sepharose, phosphocellulose and Phenyl Superose (Gellatly et al, 1994). One unit is defined as the μmoles of Pi produced per min at 25° C. The enzyme was purified 2289-fold to a final PEP-hydrolyzing specific activity of 618 units/mg and an overall recovery of 31% (Gellatly et al, 1994). With P-Tyr as substrate the final specific activity was increased to approximately 1900 units/mg (Table 1). This final specific activity was higher than any reported for a purified plant phosphatase (Duff et al, 1994).
(§2) Assays were initiated by the addition of enzyme preparation. One unit of phosphatase activity is defined as the quantity of enzyme that would catalyze the hydrolysis of 1 […] of substrate/min at 25° C.
as §1, with “enzyme. Hydrolysis was proportional to enzyme concentrations between 0.005 to 0.1 units/mL and remained linear with time for at least 15 min.” for “enzyme.”
Potato tuber phosphatase was purified by the method of Gellatly et al. (1994).

[12] = Heat-stability of the phosphatase; type: physicochemical
Protocol: The phosphatase was relatively heat-stable, losing 0, 52, and 90% of its original activity when incubated for 4 min at 65, 70 and 75° C., respectively.

potato phosphatase [13] = biological target: T1, potato phosphatase; experiment: Effect of pH on phosphatase activity (assay A with PEP); type: biochemical; set-up: mature chain from Thr30, C-terminus not determined; details: pH/activity profile
Protocol: Unless otherwise stated all kinetic studies of the potato phosphatase were performed with PEP using assay A (infra).
All subsequent kinetic studies were carried out at pH 5.8.
as §2

[14] = test system: potato tuber phosphotyrosyl proteins; experiment: Dephosphorylation of potato tuber phosphotyrosyl proteins by potato tuber phosphatase; type: biochemical, Solanum tuberosum; details: + 30 units/mL phosphatase
Protocol: A desalted potato tuber extract was incubated at 25° C. in the absence (-) and presence (+) of 30 units/mL purified potato tuber phosphatase. Aliquots were removed at 2 and 19 h and analyzed by immunoblotting using anti-(P-Tyr) IgG (Kamps and Sefton, 1988). The relative P-Tyr content of the 7 antigenic polypeptides was estimated by laser densitometric quantification of the immunoblots as described in the examples. Unless otherwise noted, all values represent the means±SE of triplicate determinations. ^a, the mean of duplicate determinations.
Electroblotting was performed by the method of Moorhead and Plaxton (1990), with the addition of […] o-vanadate to the transfer buffer when maintenance of phosphotyrosyl residues was desired. All immunoblots to be probed with the anti-(black mustard PEP-specific phosphatase) IgG (Duff et al, 1991a) were first pre-treated with sodium m-periodate according to Laine (1988) so as to oxidize antigenic oligosaccharide chains of endogenous tuber glycoproteins. Immunological detection of phosphotyrosylated tuber proteins using anti-(P-Tyr) IgG (Kamps and Sefton, 1988) was performed as referenced above except that the blocking buffer contained 5% (w/v) bovine serum albumin (fraction V) and 1% (w/v) ovalbumin instead of 3% (w/v) defatted milk powder.
Antigenic polypeptides were visualized using an alkaline-phosphatase-taggedsecondary antibody (Moorhead and Plaxton, 1990). Immunological specificities were confirmed by performing immunoblots in which rabbit preimmune serum was substituted for the affinity-purified IgGs. An LKB Ultroscan XL Enhanced Laser Densitometer was used to scan indicated immunoblots. Densitometric data were analysed using the LKB Gelscan XL software (version 2.1). Immunoreactive polypeptides were quantified in terms of their relative absorbance at 633 nm wavelength (A633).
Peeled and diced potato tuber tissue (5 g) was homogenized with a Polytron in 1 volume of 100 mM MES-NaOH (pH 5.8) containing 2 mM PMSF, 2 mM DTT, and 1 mM EDTA. The homogenate was centrifuged for 10 min at 13,000 g in an Eppendorf microfuge, and a 3-mL aliquot of the supernatant fluid was passed at 4° C. through a BioRad Econo-Pac 10DG desalting column that had been pre-equilibrated in homogenization buffer lacking PMSF. Aliquots (0.1 mL) of the desalted crude extract were incubated at 25° C. with and without 3 units of the purified potato phosphatase. Samples were removed at 0, 2 and 19 h and analyzed by immunoblotting using the anti-(P-Tyr) IgG as described supra. Laser densitometric scanning and immunoquantification of the blots was performed as described supra.

NC(COP(=O)(O)O)C(=O)O (stereo not drawn) [P-Ser]
Vmax (potato phosphatase [1]): 389 units/mg
dephosphorylation by the minor 28-kD isoform [2]: inability to catalyze dephosphorylation

potato tuber phosphatase (PTAP) (enzyme)
phosphoprotein phosphatase activity [3]: 220 units/mg

egg yolk storage phosphoprotein, phosvitin (from UniProt P02845)
Relative Activity (%) of potato phosphatase with 0.25 mM PEP [4]: 19%

N[C@@H](Cc1ccc(OP(=O)(O)O)cc1)C(=O)O [P-Tyr, o-phospho-L-tyrosine]
Km [5]: > 6000 µM

B1: potato phosphatase (Solanum tuberosum) (protein)
chain: TQFPSVDIPLENEVLSVPNGYNAPQQVHITQGDYDGEAVIISWVTADEPGSSEVRYGLSEGKYDVTVEGTLNNYTFYKYESGYIHQCLITGLQYDTKYYYEIGKGDSARKFWFETPPKVDPDASYKFGIIGDLGQTYNSLSTLQHYMASGAKSVLFVGDLSYADRYQYNDVGVRWDTFGRLVEQSTAYQPWIWSAGNHEIEYFPSMGEVVPFRSFLSRYPTPYRASKSSNPLWYAIRRASAHIIVLSNYSPFGKYTPQWHWLKQEFKKVNREKTPWLIVLMHVPIYNSNAAHFMEGESMRSAYERWFVKYKVDVIFAGHVHAYERSYRISNIHYNVSGGDAYPVPDKAAPIYITVGDGGNSEGLTSRFRDPQPEYSAFREASYGHAILEIKNRTHAYYSWNRNDDGNAITTDSFTLHNQHW
Km [6]: 990 µM
Vmax [6]: 1917 units/mg
Km [7]: 2160 µM
Vmax [7]: 368 units/mg
Km [8]: 1100 µM
Km [9]: 1520 µM
Km [10]: 620 µM

B2: PTAP: potato tuber acid phosphatase purified from Solanum tuberosum tubers; 57 and 55 kD subunits (protein)
chain: TQFPSVDIPLENEVLSVPNGYNAPQQVHITQGDYDGEAVIISWVTADEPGSSEVRYGLSEGKYDVTVEGTLNNYTFYKYESGYIHQCLITGLQYDTKYYYEIGKGDSARKFWFETPPKVDPDASYKFGIIGDLGQTYNSLSTLQHYMASGAKSVLFVGDLSYADRYQYNDVGVRWDTFGRLVEQSTAYGPWIWSAGNHEIEYFPSMGEVVPFRSFLSRYPTPYRASKSSNPLWYAIRRASAHIIVLSNYSPFGKYTPQWHWLKQEFKKVNREKTPWLIVLMHVPIYNSNAAHFMEGESMRSAYERWFVKYKVDVIFAGHVHAYERSYRISNIHYNVSGGDAYPVPDKAAPIYITVGDGGNSEGLTSRFRDPQPEYSAFREASYGHAILEIKNRTHAYYSWNRNDDGNAITTDSFTLHNQHW
o-phospho-L-tyrosine (P-Tyr) hydrolyzing specific activity (potato phosphatase [11]; final purified preparation): 1917 μmol Pi produced min^-1 mg^-1 of protein
PEP-hydrolyzing specific activity (potato phosphatase [11]; final purified preparation, substrate PEP): 618 units/mg
p-nitrophenyl phosphate-hydrolyzing specific activity (potato phosphatase [11]; purified PTAP sample used for microprobe analysis): 618 units/mg
loss of original activity ([12]; incubated 4 min at 65° C): 0%
loss of original activity ([12]; incubated 4 min at 70° C): 52%
loss of original activity ([12]; incubated 4 min at 75° C): 90%
pH of maximum activity (potato phosphatase [13]): ~5.8
pH of half-maximal activity (potato phosphatase [13]; listed as potato phosphatase): 4.9 and 6.7
Relative phosphotyrosyl content after incubation at 25° C ([14]; 20 kD polypeptide, 2h): 66 ± 5 % initial value
Relative phosphotyrosyl content after incubation at 25° C ([14]; 20 kD polypeptide, 19h): 12 ± 3 % initial value
Relative phosphotyrosyl content after incubation at 25° C ([14]; 34 kD polypeptide, 2h): 40 ± 3 % initial value
Relative phosphotyrosyl content after incubation at 25° C ([14]; 34 kD polypeptide, 19h): 16 + 2 % initial value
Relative phosphotyrosyl content after incubation at 25° C ([14]; 85 kD polypeptide, 2h): 69 ± 2 % initial value
Relative phosphotyrosyl content after incubation at 25° C ([14]; 85 kD polypeptide, 19h): 34 ± 2 % initial value
Relative phosphotyrosyl content after incubation at 25° C ([14]; 102 kD polypeptide, 2h): 60 ± 5 % initial value
Relative phosphotyrosyl content after incubation at 25° C ([14]; 102 kD polypeptide, 19h): 36 ± 3 % initial value
Relative phosphotyrosyl content after incubation at 25° C ([14]; 228.5 kD polypeptide, 2h): 65 ± 2 % initial value
Relative phosphotyrosyl content after incubation at 25° C ([14]; 228.5 kD polypeptide, 19h): 28 ± 3 % initial value
